According to patent US11814435B2, “Therapeutic antibodies and their uses” (PFIZER INC., priority 2015, dated 2023):
Where a chain is given by its changes, count along the chain named.

T1: hBCMA (human BCMA) (Homo sapiens, UniProt Q02223)
T1 sequence (Q02223 1-184): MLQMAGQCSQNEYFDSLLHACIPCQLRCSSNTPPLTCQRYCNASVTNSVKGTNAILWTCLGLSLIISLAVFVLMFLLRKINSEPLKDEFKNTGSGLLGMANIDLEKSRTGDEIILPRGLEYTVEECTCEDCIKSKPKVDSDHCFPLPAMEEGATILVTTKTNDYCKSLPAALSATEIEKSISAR

B1: COMBO_Rd4_6 nM_C09: anti-BCMA antibody (antibody, V domains shown)
VH: EVQLLESGGGLVQPGGSLRLSCAASGFTFSSYPMSWVRQAPGKGLEWVSAIFASGGSTYYADSVKGRFTISRDNSKNTLYLQMNSLRAEDTAVYYCARYWPMDSWGQGTLVTVSS
VL: EIVLTQSPGTLSLSPGERATLSCRASQSVSAQYLAWYQQKPGQAPRLLMYDASIRATGIPDRFSGSGSGTDFTLTISRLEPEDFAVYYCQQYQAWPLTFGQGTKVEIK
B2: COMBO_Rd4_0.6 nM_C23: anti-BCMA antibody (antibody, V domains shown)
VH: B1 VH with I51L, A53G
VL: B1 VL with A25P, S26R, A31S, Q32S, A94D
B3: COMBO_Rd4_6 nM_C12: anti-BCMA antibody (antibody, V domains shown)
VH: EVQLLESGGGLVQPGGSLRLSCAASGFTFSSYPMSWVRQAPGKGLEWVSAALGSGGSTYYADSVKGRFTISRDNSKNTLYLQMNSLRAEDTAVYYCARYWPMDSWGQGTLVTVS
VL: B1 VL with Q32S, Q93M, A94S
B4: COMBO_Rd4_0.6 nM_C19: anti-BCMA antibody (antibody, V domains shown)
VH: B1 VH with F52G, A53G, T58L, Y59P
VL: B1 VL with Q32V, Q93R
B5: COMBO_Rd4_0.6 nM_C09: anti-BCMA antibody (antibody, V domains shown)
VH: B1 VH with F52G, A53G, T58L, Y59P, S104I
VL: B1 VL with A31S, Q32T, A94E
B6: COMBO_Rd4_6 nM_C08: anti-BCMA antibody (antibody, V domains shown)
VH: B1 VH with F52G, A53G, G56T, S57W
VL: B1 VL with A31S, Q32S, A94K
B7: COMBO_Rd4_0.6 nM_C30: anti-BCMA antibody (antibody, V domains shown)
VH: B1 VH with F52G, A53G
VL: B1 VL with A31Y, Q32M, M49I, Q93K, A94S
B8: COMBO_Rd4_0.6 nM_C02: anti-BCMA antibody (antibody, V domains shown)
VH: B1 VH with F52G, A53G, T58L, Y59P
VL: B1 VL with Q27I, S28A, A31S, Q32T, Q93M, A94V

Key:
hBCMA (human BCMA) = target: T1, hBCMA (human BCMA); test: Kinetics and affinity of hBCMA/human IgG interactions by SPR (Bio-Rad Proteon XPR36); assay type: binding; settings: human BCMA, 37° C.
Procedure, shortened: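 Captured here: binding of soluble BCMA to covalently coupled anti-BCMA IgGs, measured at 37° C. or 25° C. with a five-point single-cycle series (top 50 nM, fivefold dilution) and extended 2 h off-rate phase, analyzed by a 1:1 mass-transport-corrected model.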

Cyno BCMA = test: Kinetics and affinity of cyno BCMA/human IgG interactions by SPR (Bio-Rad Proteon XPR36); assay type: binding, cynomolgus; settings: 37° C.

| Molecule | ka Human (hBCMA (human BCMA)) [M⁻¹ s⁻¹] | kd Human (hBCMA (human BCMA)) [s⁻¹] | ka Cyno (Cyno BCMA) [M⁻¹ s⁻¹] | kd Cyno (Cyno BCMA) [s⁻¹] |
| --- | --- | --- | --- | --- |
| B1 | 8.85e+06 | 0.000143 | 2.37e+06 | 0.000318 |
| B2 | 7.39e+06 | 0.00021 | 2.81e+06 | 0.000531 |
| B3 | 1.38e+07 | 0.00027 | 3.29e+06 | 0.000486 |
| B4 | 7.86e+06 | 0.000155 | 2.92e+06 | 0.000979 |
| B5 | 1.04e+07 | 0.000319 | 3.77e+06 | 0.000346 |
| B6 | 8.99e+06 | 0.000169 | 3.06e+06 | 0.000428 |
| B7 | 4.35e+06 | 0.000282 | 1.68e+06 | 0.000808 |
| B8 | 8.57e+06 | 0.000185 | 3.01e+06 | 0.000494 |
